Here are results for 23 sequences from the DeepSol protein solubility set.

A short description of the series: soluble on expression in E. coli; label from the status in PepcDB or PDB records.
Regarding “GYITVGNENSTPIELYYEDQGSGQPVVLIHGYPLDGHSWERQTRELLAQGYRVITYDRRGFGGSSKVNTGYDYDTFAADLHTVLETLDLRDVVLVGFSMGTGELARYVARYGHERVAKLAFLASLEPFLVQRDDNPEGVPQEVFDGIEAAAKGDRFAWFTDFYKNFYNLDENLGSRISEQAVTGSWNVAIGSAPVAAYAVVPAWIEDFRSDVEAVRAAGKPTLILHGTKDNILPIDATARRFHQAVPEADYVEVEGAPHGLLWTHADEVNAALKTFLAK”, the “soluble on expression in E. coli” value is reported as “soluble”.

As to “MGSDKIHHHHHHLFSEAQMQKMGAESFASMNQEQKVSKDKALTTYVNCVAKRITDVLPGEAKPWELVLFESDQVNAFAVPGGFIGVYTGLLNVANTQDQLATVLGHEVAHVLAHHGNEQVSRAQMTGLGIQLADVALGAGGVSNKDLYMQALGLGAKVGYILPFGRTQESEADVMGLELMAKAGFDPSQSITLWQNMAKAGGAQGPELLSTHPSNERRIQDLQGLQGRVAPLYLAARETQLAKCIQPGKK”, the “soluble on expression in E. coli” value is recorded as “not soluble”.

Take “GRKQEPFENVTLDVEEQHQGSVMQALGERKGDLKNMNPDGKGRVRLDYVIPSRGLIGFRSEFMTMTSGTGLLYSTFSHYDDVRPGEVGQRNNGVLISNGQGKAVAFALFGLQDRGKLFLGHGAEVYEGQI”: the “soluble on expression in E. coli” value is on record as “not soluble”.

As to “EEIDCNDKDLFKAVDAALKKYNSQNQSNNQFVLYRITEATKTVGSDTFYSFKYEIKEGDCPVQSGKTWQDCEYKDAAKAATGECTATVGKRSSTKFSVATQTCQITPAEGPVVTAQYDCLGCVHPISTQSPDLEPILRHGIQYFNNNTQHSSLFMLNEVKRAQRQVVAGLNFRMTYSIVQTNCSKENFLFLTPDCKSLWNGDTGECTDNAYIDIQLRIASFSQNCDIYPGKDFVQPPTKICVGCPRDIPTNSPELEETLTHTITKLNAENNATFYFKIDNVKKARVQVVAGKKYFIDFVARETTCSKESNEELTESCETKKLGQSLDCNAEVYVVPWEKKIYPTVNCQPLGMISLMKRPPGFSPFRSSRIGEIKEETTSHLRSCEYKGRPPKAGAEPASEREVS”, the “soluble on expression in E. coli” value is reported as “not soluble”.

Consider “MAHHHHHHMATAKELGPGGLREDGRPIFIATDHTKFTPSTKQELTDQQKLAWKSFQLWRTTLGIERRDNVYKTLTNSDYTNFRLGTHILGTPYPVIETVPGFFDVFKAVRWYEHAISLAVALGYGYWIRSKASTRYSRMMPMSRTSITMLTFISTDLCFCYRSMYRLTGYLPNEYECFKYGVLEDKDKLQRKKELWEKYANHKREWCRRYDYHVYGIRPGETFSFFSACMIPSWEPRYNTRTDYPPRKNPYFLTSTPLRDTFLESPFTYEIPKDETVPLVRERPELKYLYRGPGRTTPPSDEK”, for which the “soluble on expression in E. coli” value is listed as “not soluble”.

In the case of “MAHELQLIKQSSGILIPATPETSEILQSKIKLGAVLVAEFRQVRNPAFHRRFFALLNLGFEYWEPTGGAISANERKLVNGYAKFLAAYGGNESALLDAAEQYLEQIANRRVTNGISLCKSFDAYRAWVTVEAGHYDAIQLPDGTLRKHPRSIAFSSMDEVEFQQLYKSALDVLWRWILSRTFRTQREAENAAAQLMSWAG”, the “soluble on expression in E. coli” value was “not soluble”.

As to “MTGPTTDADAAVPRRVLIAEDEALIRMDLAEMLREEGYEIVGEAGDGQEAVELAELHKPDLVIMDVKMPRRDGIDAASEIASKRIAPIVVLTAFSQRDLVERARDAGAMAYLVKPFSISDLIPAIELAVSRFREITALEGEVATLSERLETRKLVERAKGLLQTKHGMTEPDAFKWIQRAAMDRRTTMKRVAEVVLETLGTPKDT”, the “soluble on expression in E. coli” value was “soluble”.

In the case of “MSKDFIINEQIRAREVRLIDQNGDQLGIKSKQEALEIAARRNLDLVLVAPNAKPPVCRIMDYGKFRFEQQKKEKEARK”, the “soluble on expression in E. coli” value is on record as “soluble”.

For the sequence “EKIAHMAVSRGNGARLLVDGEATFAALFAALDAARHYVLIQFYIVRDDDLGLELRDRLIAAAQRGVKVRFLTDAIGSYGLSDNYIEDLRAAGIDIANPRKQRGPNTRFQVNYRNHRKTVVVDGQTGFIGGHNVGVEYLGQDPVMGRWRDTHVQITGPSVLQLQLVFAEDWHWARGEDLLDLLSWETRLDPQDADALIVATGPGDRTESGAMM”, the “soluble on expression in E. coli” value is “not soluble”.

With “MQARVKWVEGLTFLGESASGHQILMDGNSGDKAPSPMEMVLMAAGGCSAIDVVSILQKGRQDVVDCEVKLTSERREADTRLFTHINLHFIVTGRDLKDAAVARAVDLSAEKYCSVALMLEKAVNITHSYEVVAA”, the “soluble on expression in E. coli” value was “soluble”.

As for “MGSDKIHHHHHHMELNIPLVLQNKTPIYLQIYEYMKREISHGSLCAGTRLPSHRNLAMQLNVSRITVESAYQQLLAEGYVESKPKRGIFVAEVDIDVIQKKQQIVSNSANNKEKEQYDYDCSQGLIDQKAFPITNWKRALHETLFQYENELFAKEDPQGELVLREHISKYLYHARGVHSSPDQIIIGAGTQPLLWLLLQLLGSKKEYGIENPGFHRIPAMIQSSGLPVHPIPLDDKGIHISALRESGSNVAYVTPSHQFPLGIIMPLSRRLELLKWANDCKGYIVEDDYDGEFRYIGKPIPSLQGLDSNERVIYMGTFSKSFLPSLRMGYIVLPPHLLKTYKELGGMYKQTVSTMQQLTFATFIQSGDWERHINRSRTLYKRKHISLIKSITNEMGNNVHILGEQSGLHIVLHVHNGMNEQELIHAAAKQRIKLYPLSTYDSVHNVREESYVLLGFGSIPENRIETVVQLLKKAWFPK”, the “soluble on expression in E. coli” value is listed as “not soluble”.

As for “MGSDKIHHHHHHMSAGLTGIRVAVIGGDDREIYMIPELQKLGAYIVGVGFEKAAPIQGVTLLSSPLEAVEKADVLLFPMYGTDERGDVKAKYSETPIVLNKELLKAVSPKVPLFIGWARPALKSAAEMLGIQIVETANLDQLAILNSIPSAEGAIQMAMEASPITIHGSESFVLGLGRCGWTLARTLKGMGAHVTGVARKPADLARALEMGLEAVHFADLDEKIGKAELIFNTVPHLILDKVMLEQVNHEAVIIDIASLPGGTDFEYAKAKGIKAMLAPGLPGKVAPKAAGKILAQVYPQLILRHLTTKNASLKF”, the “soluble on expression in E. coli” value is listed as “not soluble”.

On to “AHHHHHHGSNRKLDEFLGSNDPPATKEENQKVKKKQRLRATNLDEFLPEDHINFFKNLRIGSKKIARKKIEEL”, for which the “soluble on expression in E. coli” value is given as “not soluble”.

As to “MFEIATAKVDNMRVSIVGGGFAGLAAAQLAEEVTSDVHLYDKGTYSGDRRGAWGEMVWDYSQLPLDRHVPGYVREATTGIFIGSDGKTAINVPDGVILNRGELEKHWASTLEETEIIADAEVDEAEFRKLSAESDLLIDATGQFPISRRFTSLSYDVACPTLSGRIEADFSHLYPEPRALAYENYFLWIVPQSPDEATIGLGCQEDKSPAELYEDMRQLLAEVDIEPPERETLYSGTDVSNGLRSLSDCSYELNDCTVHIAGDAIGLANRLTGFGMVHAAQSGQAAVRSFVQGESYTRRLLCQNFWTKAVTGVVSPVHHTIGLDGIARLAKSDIEYQESFEPQQPTDILSAVRIFILEHHHHHH”, the “soluble on expression in E. coli” value is “not soluble”.

Regarding “MDISVIDATKVNTETGLHIGESNAPVKMIEFINVRCPYCRKWFEESEELLAQSVKSGKVERIIKLFDKEKESLQRGNVMHHYIDYSAPEQALSALHKMFATQDEWGNLTLEEVATYAEKNLGLKEQKDATLVSAVIAEANAAHIQFVPTIIIGEYIFDESVTEEELRGYIEK”, the “soluble on expression in E. coli” value is “soluble”.

As for “MEKNKLRKVGLTALEWLKQHPEIKQHKESSLYEQLFASQQWQQAQTIGMIRSLPLELSTQPIFERAMQESKQVAVPRTFKGGKMHFYQVFPETVYDTSAFGVEEPPLTAAEITATAIDLLIVPGIVFNRAGYRIGFGGGFYDRYLEHFSGHSCSLVFSEQLHEQWQPEAFDQPIEQLFIQLEHHHHHH”, the “soluble on expression in E. coli” value is “not soluble”.

As to “MIDTPDLETRAAPEDHHALRLWLRMLTCCNLIESEIRSRLRTEFDTTLPRFDLMAQLQRAPKGMKMGELSRHMMVTNGNITGITDQLEKEGLVVRTKVESDRRSSVLKLTPQGKRTFARMARAHESWVTGMLDDLPEASRHAMYKALGELKLQVVAHRALAQRDGAS”, the “soluble on expression in E. coli” value is on record as “not soluble”.

Turning to “MAPQMEKVSEELILPSSPTPQSLKCYKISHLDQLLLTCHIPFILFYPNPLDSNLDPAQTSQHLKQSLSKVLTHFYPLAGRINVNSSVDCNDSGVPFVEARVQAQLSQAIQNVVELEKLDQYLPSAAYPGGKIEVNEDVPLAVKISFFECGGTAIGVNLSHKIADVLSLATFLNAWTATCRGETEIVLPNFDLAARHFPPVDNTPSPELVPDENVVMKRFVFDKEKIGALRAQASSASEEKNFSRVQLVVAYIWKHVIDVTRAKYGAKNKFVVVQAVNLRSRMNPPLPHYAMGNIATLLFAAVDAEWDKDFPDLIGPLRTSLEKTEDDHNHELLKGMTCLYELEPQELLSFTSWCRLGFYDLDFGWGKPLSACTTTFPKRNAALLMDTRSGDGVEAWLPMAEDEMAMLPVELLSLVDSDFSK”, the “soluble on expression in E. coli” value is listed as “soluble”.

Consider “MVYRCTGCGQSQPKWSGQCGGCGQWNTLVEEIEAPAVGRRRAGYAGAAEGSMPVSLAEVSREDLSRVTSGLGELDRVLGGGVVPGSAILLGGDPGIGKSTLLLQTLAYLGKSARTLYVTGEESLSQVSLRAHRLGLDGHGIQALAETSLERILDTAERHKPEVLVVDSIQTVYSEALQSAPGSVGQVRECSAQLVRYAKQSSTTVFLVGHVTKEGALAGPRVLEHMVDTVLYFEGDASSRYRVVRSFKNRFGAVNELGVFAMTETGLKEVRNPSAIFLSRGDEDMPGSIVTVTREGSRPLLVEVQALVDESHLQSPRRLVVGMEMNRLAMLLAVLHRHGGVPVAAQDVFVNLVGGVRLTETAGDLAIACAVVSSFRDRPVPGEWVIFGELGLNGEIRPVPNGEERLREAAKHGFKYALVPAKNAPKQGVPGVSIIAARNLREAINALLEHHHHHH”, for which the “soluble on expression in E. coli” value is recorded as “soluble”.

On to “RTNRTGMATAIPDSLHKIFYTAAGRRVEDAGGILPDIEVKQDTAATLLYYMAINNDVFDFVTGYVLKHKTIAKPEDFSITNEDYAAFCKMMEEKKFDYDRQSGKMLDKLEELAKIEGYLPEANSELKALREKLKPNLSRDLLRFKKEITNYLNNEIVTRYYYERGSIRQSLPEDKVVKEAIKLLKDHPEQIRQILAAPKAENKG”, for which the “soluble on expression in E. coli” value was “not soluble”.

As for “MGRLSEVFEVRERYVPQIGRPSYLLVSLPDAGLVGSISGEFLINYLNLREYGEIYSNKHLPPISHVVNGVAKSPIRLYHYDNFLLLHSWIAIPANSINHLANLVVSYAEKYGIQTIISITGVPVPNRLDLEKPTPYWVASSEDFAKELDSLNLMKKFVEGYVSGPYAPILFQSAKKLIRNLLIVVESFLDLPDPEAAAVALDILSKMLGFKVDTSSLLKEAEEIRERIKGLMQQTRQELPNYSGLRPSTYA”, the “soluble on expression in E. coli” value is “not soluble”.

“MSDAAKPDRPDEALVLEYDFDAPPAKVWRAVTIPALRERWSPDCDLAGAEPESTIAGEEVRYRLRDSEPPFRESHVIFRIEPNEDGGTRFRIIQQACDDLAKLPQPANTNCRLMMAALEHHHHHH”: the “soluble on expression in E. coli” value is on record as “soluble”.

On to “MSAEPEFVAARFLPEGERFLVEPLGGGLINRTWLVSPAASPRFVLQRLNTRVFAHPGRITVNLCRIQGRVKQGRSGLAEHWPDLVAPRAGGDAFIDAEGGYWRAQRYLEGSRVLEHIATERQALEVGRVLGTFHAALGEIDCTELEDTLPDFHIAPAYLARLDAVRTSAGAADPSVRQALDFVEARRDFVPVLERAKAAGRLALRIIHGDPKLANILFDRDGERALTLIDLDTVKPGLVHYDIGDCLRSCCNRSGESSDDPGAARFDLALCEAILRGYLAAAGDMLTAEDRDHLYDAIRLIPLELGIRFLADHLAGDVYFRVESRGQNLRRARVQFRLVECIEADETAIRRIVAAPSPSMETGEGLEHHHHHH”, for which the “soluble on expression in E. coli” value is listed as “not soluble”.
